B1: Leukemia Inhibitory Factor Receptor LIF-R (D1-D5) (domain or fragment, human)
chain: DLKCVTNNLQVWNCSWKAPSGTGRGTDYEVCIENRSRSCYQLEKTSIKIPALSHGDYEITINSLHDFGSSTSKFTLNEQNVSLIPDTPEILNLSADFSTSTLYLKWNDRGSVFPHRSNVIWEIKVLRKESMELVKLVTHNTTLNGKDTLHHWSWASDMPLECAIHFVEIRCYIDNLHFSGLEEWSDWSPVKNISWIPDSQTKVFPQDKVILVGSDITFCCVSQEKVLSALIGHTNCPLIHLDGENVAIKIRNISVSASSGTNVVFTTEDNIFGTVIFAGYPPDTPQQLNCETHDLKEIICSWNPGRVTALVGPRATSYTLVESFSGKYVRLKRAEAPTNESYQLLFQMLPNQEIYNFTLNAHNPLGRSQSTILVNITEKVYPHTPTSFKVKDINSTAVKLSWHLPGNFAKINFLCEIEIKKSNSVQEQRNVTIKGVENSSYLVALDKLNPYTLYTFRIRCSTETFWKWSKWSNKKQHLTTEAS

The target of test [1] is T1, gp130/CNTF-Rα/CNTF ternary complex (human, UniProt P26441 1-200; P40189 23-619).
T1 chain 1: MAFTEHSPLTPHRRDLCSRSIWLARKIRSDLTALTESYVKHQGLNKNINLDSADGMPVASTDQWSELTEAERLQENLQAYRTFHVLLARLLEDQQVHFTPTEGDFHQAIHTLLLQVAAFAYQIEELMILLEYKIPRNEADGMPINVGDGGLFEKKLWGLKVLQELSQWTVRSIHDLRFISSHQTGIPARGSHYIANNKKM
T1 chain 2: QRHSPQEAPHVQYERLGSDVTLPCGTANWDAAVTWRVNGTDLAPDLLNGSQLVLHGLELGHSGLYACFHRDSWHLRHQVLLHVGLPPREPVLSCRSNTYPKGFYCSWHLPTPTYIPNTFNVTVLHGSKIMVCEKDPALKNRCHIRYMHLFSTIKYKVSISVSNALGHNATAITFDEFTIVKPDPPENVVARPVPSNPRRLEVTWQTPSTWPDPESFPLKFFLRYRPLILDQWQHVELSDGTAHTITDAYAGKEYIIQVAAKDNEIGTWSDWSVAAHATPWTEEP
T1 chain 3: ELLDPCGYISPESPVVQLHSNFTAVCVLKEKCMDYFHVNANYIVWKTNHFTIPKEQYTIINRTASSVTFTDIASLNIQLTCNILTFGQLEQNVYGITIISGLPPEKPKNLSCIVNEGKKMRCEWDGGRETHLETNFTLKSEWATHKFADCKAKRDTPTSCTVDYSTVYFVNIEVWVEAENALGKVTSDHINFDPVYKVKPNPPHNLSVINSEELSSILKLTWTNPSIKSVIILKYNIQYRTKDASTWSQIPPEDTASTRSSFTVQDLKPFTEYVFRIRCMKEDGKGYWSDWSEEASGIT
Nature of the test: ITC.

Test [2] deals with B1. The experiment in a line: ITC.

Take B1: in test [1], the “stoichiometry N” value stood at 1.

B2: Ciliary Neurotrophic Factor (CNTF) (ligand, human, UniProt P26441 1-200, looked up)
chain: MAFTEHSPLTPHRRDLCSRSIWLARKIRSDLTALTESYVKHQGLNKNINLDSADGMPVASTDQWSELTEAERLQENLQAYRTFHVLLARLLEDQQVHFTPTEGDFHQAIHTLLLQVAAFAYQIEELMILLEYKIPRNEADGMPINVGDGGLFEKKLWGLKVLQELSQWTVRSIHDLRFISSHQTGIPARGSHYIANNKKM
Regarding B2, the binding result in test [2] is reported as “binds”.

(Values after publication PMC2607196 (Molecular cell, 2008).)
